Source: patent US20240299493A1 (ACCELERON PHARMA, published 2024)

T1: GDF11 (UniProt O95390 299-407)
T1 sequence (looked up): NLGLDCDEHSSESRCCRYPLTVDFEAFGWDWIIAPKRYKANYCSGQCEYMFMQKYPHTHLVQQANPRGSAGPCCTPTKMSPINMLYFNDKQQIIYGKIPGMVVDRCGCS

T2: activin A (UniProt P08476 311-426)
T2 construct: also called ActA
T2 sequence (looked up): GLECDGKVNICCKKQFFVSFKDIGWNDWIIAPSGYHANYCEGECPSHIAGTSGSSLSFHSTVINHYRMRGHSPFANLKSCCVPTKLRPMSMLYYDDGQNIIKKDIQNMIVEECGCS

T3: GDF8 (UniProt O14793 267-375)
T3 construct: also called myostatin
T3 sequence (looked up): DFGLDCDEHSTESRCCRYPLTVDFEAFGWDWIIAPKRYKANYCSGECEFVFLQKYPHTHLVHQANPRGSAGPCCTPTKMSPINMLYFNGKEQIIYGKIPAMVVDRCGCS


How the values were obtained:
GDF11 [1] = molecular target: T1, GDF11; assay: cell-based or functional assay
activin A [2] = molecular target: T2, activin A; assay: cell-based or functional assay
GDF11 [3] = molecular target: T1, GDF11; assay: Biacore; Fc fusion captured by anti-hFc antibody, ligand flowed
Experimental: (§1) Binding of certain ActRIIB-Fc proteins and ActRIIB variant Fc fusion polypeptides to ligands was tested in a Biacore™ assay.
(§2) The ActRIIB-Fc variants or wild-type protein were captured onto the system using an anti-hFc antibody. Ligands were injected and flowed over the captured receptor proteins.

activin A [4] = molecular target: T2, activin A; assay: as above
Experimental: as §1, §2

GDF8 = molecular target: T3, GDF8; assay: as above
Experimental: as §1, §2

GDF11 Inhibition Activity (KI) (GDF11 [1]) | Activin Inhibition Activity (KI) (activin A [2]) | Kd (GDF11 [3]) | koff (GDF11 [3]) | Kd (activin A [4]) | koff (activin A [4]) | kon (activin A [4]) | Kd (GDF8) | koff (GDF8) | Molecule
1000 nM | 1000 nM |  |  |  |  |  |  |  | ActRIIB-Fc A64 20-134 (Fc fusion)
 |  | 0.0519 nM | 6.35e-05 s⁻¹ | 0.104 nM | 0.000346 s⁻¹ | 3.34e+06 M⁻¹ s⁻¹ |  |  | ActRIIB(A24N 20-134)-hFc (Fc fusion, A24N creates an N-linked glycosylation sequence (N-E-T), paragraph 96, also called A24N variant) GRGENETRECIYYNANWELERTNQSGLERCEGEQDKRLHCYASWRNSSGTIELVKKGCWLDDFNCYDRQECVATEENPQVYFCCCEGNFCNERFTHLPEAGGPEVTYEPPPTAPTGGGTHTCPPCPAPELLGGPSVFLFPPKPKDTLMISRTPEVTCVVVDVSHEDPEVKFNWYVDGVEVHNAKTKPREEQYNSTYRVVSVLTVLHQDWLNGKEYKCKVSNKALPVPIEKTISKAKGQPREPQVYTLPPSREEMTKNQVSLTCLVKGFYPSDIAVEWESNGQPENNYKTTPPVLDSDGSFFLYSKLTVDKSRWQQGNVFSCSVMHEALHNHYTQKSLSLSPGK
 |  |  |  | 0.0841 nM | 0.000628 s⁻¹ | 7.46e+06 M⁻¹ s⁻¹ | 2.15 nM | 0.000209 s⁻¹ | ActRIIB(R64K 20-129)-hFc (Fc fusion) GRGEAETRECIYYNANWELERTNQSGLERCEGEQDKRLHCYASWKNSSGTIELVKKGCWLDDFNCYDRQECVATEENPQVYFCCCEGNFCNERFTHLPEAGGPEVTYEPPTGGGTHTCPPCPAPELLGGPSVFLFPPKPKDTLMISRTPEVTCVVVDVSHEDPEVKFNWYVDGVEVHNAKTKPREEQYNSTYRVVSVLTVLHQDWLNGKEYKCKVSNKALPVPIEKTISKAKGQPREPQVYTLPPSREEMTKNQVSLTCLVKGFYPSDIAVEWESNGQPENNYKTTPPVLDSDGSFFLYSKLTVDKSRWQQGNVFSCSVMHEALHNHYTQKSLSLSPGK
